Data reported in patent US20190300618A1 (Merck Sharp & Dohme, published 2019).

Assays:
F28A [1] = assay: flow cytometry, CHO-K1; sub-column 1 of 2
V49A [2] = assay: flow cytometry, CHO-K1; sub-column 1 of 2
G89A [3] = assay: flow cytometry, CHO-K1; sub-column 1 of 2
K38A [4] = assay: flow cytometry, CHO-K1; sub-column 1 of 2
K17A [5] = assay: flow cytometry, CHO-K1; sub-column 1 of 2
S63A [6] = assay: flow cytometry, CHO-K1; sub-column 1 of 2
Q15A [7] = assay: flow cytometry, CHO-K1; sub-column 1 of 2
W90A [8] = assay: flow cytometry, CHO-K1; sub-column 1 of 2
V30A [9] = assay: flow cytometry, CHO-K1; sub-column 1 of 2
Q41A [10] = assay: flow cytometry, CHO-K1; sub-column 1 of 2
W13A [11] = assay: flow cytometry, CHO-K1; sub-column 1 of 2
R93A [12] = assay: flow cytometry, CHO-K1; sub-column 1 of 2
R37A [13] = assay: flow cytometry, CHO-K1; sub-column 1 of 2
I46A [14] = assay: flow cytometry, CHO-K1; sub-column 1 of 2
G16A [15] = assay: flow cytometry, CHO-K1; sub-column 1 of 2
K31A [16] = assay: flow cytometry, CHO-K1; sub-column 1 of 2
P44A [17] = assay: flow cytometry, CHO-K1; sub-column 1 of 2
H36A [18] = assay: flow cytometry, CHO-K1; sub-column 1 of 2
R87A [19] = assay: flow cytometry, CHO-K1; sub-column 1 of 2
P8A [20] = assay: flow cytometry, CHO-K1; sub-column 1 of 2
D43A [21] = assay: flow cytometry, CHO-K1; sub-column 1 of 2
E9A [22] = assay: flow cytometry, CHO-K1; sub-column 1 of 2
[23] = molecular target: Macaca mulatta CD27 (mmCD27), expressed on cells (Macaca mulatta (rhesus); same entry given for cynomolgus monkey); assay: flow cytometry MFI on CD4+ T cells from rhesus peripheral blood
[24] = molecular target: human CD27 (A59T), expressed on cells (human) (UniProt P26842); assay: cell ELISA on CD27-transfected CHOK1 cells
[25] = molecular target: Macaca mulatta CD27 (mmCD27), expressed on cells (Macaca mulatta (rhesus); same entry given for cynomolgus monkey); assay: cell ELISA on CD27-transfected CHOK1 cells
[26] = molecular target: human CD27 (wild type), expressed on cells (human) (UniProt P26842); assay: cell ELISA on CD27-transfected CHOK1 cells
F28A [27] = assay: flow cytometry, CHO-K1; sub-column 2 of 2
D32A = assay: flow cytometry, CHO-K1; sub-column 2 of 2
V49A [28] = assay: flow cytometry, CHO-K1; sub-column 2 of 2
G89A [29] = assay: flow cytometry, CHO-K1; sub-column 2 of 2
K38A [30] = assay: flow cytometry, CHO-K1; sub-column 2 of 2
K17A [31] = assay: flow cytometry, CHO-K1; sub-column 2 of 2
S63A [32] = assay: flow cytometry, CHO-K1; sub-column 2 of 2
Q15A [33] = assay: flow cytometry, CHO-K1; sub-column 2 of 2
W90A [34] = assay: flow cytometry, CHO-K1; sub-column 2 of 2
V30A [35] = assay: flow cytometry, CHO-K1; sub-column 2 of 2
H60A = assay: flow cytometry, CHO-K1; sub-column 2 of 2
N88A = assay: flow cytometry, CHO-K1; sub-column 2 of 2
Q41A [36] = assay: flow cytometry, CHO-K1; sub-column 2 of 2
W13A [37] = assay: flow cytometry, CHO-K1; sub-column 2 of 2
Q91A = assay: flow cytometry, CHO-K1; sub-column 2 of 2
R93A [38] = assay: flow cytometry, CHO-K1; sub-column 2 of 2
R10A = assay: flow cytometry, CHO-K1; sub-column 2 of 2
R37A [39] = assay: flow cytometry, CHO-K1; sub-column 2 of 2
I46A [40] = assay: flow cytometry, CHO-K1; sub-column 2 of 2
G16A [41] = assay: flow cytometry, CHO-K1; sub-column 2 of 2
K31A [42] = assay: flow cytometry, CHO-K1; sub-column 2 of 2
P44A [43] = assay: flow cytometry, CHO-K1; sub-column 2 of 2
H36A [44] = assay: flow cytometry, CHO-K1; sub-column 2 of 2
R87A [45] = assay: flow cytometry, CHO-K1; sub-column 2 of 2
P8A [46] = assay: flow cytometry, CHO-K1; sub-column 2 of 2
D43A [47] = assay: flow cytometry, CHO-K1; sub-column 2 of 2
E9A [48] = assay: flow cytometry, CHO-K1; sub-column 2 of 2

% of WT hCD27 binding (geo mean FITC) (F28A [1]): 113% | % of WT hCD27 binding (geo mean FITC) (V49A [2]): 143% | % of WT hCD27 binding (geo mean FITC) (G89A [3]): 103% | % of WT hCD27 binding (geo mean FITC) (K38A [4]): 96.5% | % of WT hCD27 binding (geo mean FITC) (K17A [5]): 95.1% | % of WT hCD27 binding (geo mean FITC) (S63A [6]): 144% | % of WT hCD27 binding (geo mean FITC) (Q15A [7]): 99% | % of WT hCD27 binding (geo mean FITC) (W90A [8]): 42.5% | % of WT hCD27 binding (geo mean FITC) (V30A [9]): 171% | % of WT hCD27 binding (geo mean FITC) (Q41A [10]): 104% | % of WT hCD27 binding (geo mean FITC) (W13A [11]): 89.5% | % of WT hCD27 binding (geo mean FITC) (R93A [12]): 120% | % of WT hCD27 binding (geo mean FITC) (R37A [13]): 109% | % of WT hCD27 binding (geo mean FITC) (I46A [14]): 128% | % of WT hCD27 binding (geo mean FITC) (G16A [15]): 96% | % of WT hCD27 binding (geo mean FITC) (K31A [16]): 205% | % of WT hCD27 binding (geo mean FITC) (P44A [17]): 150% | % of WT hCD27 binding (geo mean FITC) (H36A [18]): 116% | % of WT hCD27 binding (geo mean FITC) (R87A [19]): 40.8% | % of WT hCD27 binding (geo mean FITC) (P8A [20]): 82.5% | % of WT hCD27 binding (geo mean FITC) (D43A [21]): 202% | % of WT hCD27 binding (geo mean FITC) (E9A [22]): 95.4% | EC50 [23]: 1.58 nM | EC50 [24]: 0.326 nM | EC50 [25]: 0.193 nM | EC50 [26]: 0.325 nM | % of WT hCD27 binding (geo mean FITC) (F28A [27]): 46.2% | % of WT hCD27 binding (geo mean FITC) (D32A): 59.6% | % of WT hCD27 binding (geo mean FITC) (V49A [28]): 92.8% | % of WT hCD27 binding (geo mean FITC) (G89A [29]): 68.5% | % of WT hCD27 binding (geo mean FITC) (K38A [30]): 94.2% | % of WT hCD27 binding (geo mean FITC) (K17A [31]): 112% | % of WT hCD27 binding (geo mean FITC) (S63A [32]): 121% | % of WT hCD27 binding (geo mean FITC) (Q15A [33]): 127% | % of WT hCD27 binding (geo mean FITC) (W90A [34]): 10% | % of WT hCD27 binding (geo mean FITC) (V30A [35]): 88.9% | % of WT hCD27 binding (geo mean FITC) (H60A): 110% | % of WT hCD27 binding (geo mean FITC) (N88A): 119% | % of WT hCD27 binding (geo mean FITC) (Q41A [36]): 66.3% | % of WT hCD27 binding (geo mean FITC) (W13A [37]): 82.8% | % of WT hCD27 binding (geo mean FITC) (Q91A): 115% | % of WT hCD27 binding (geo mean FITC) (R93A [38]): 85.5% | % of WT hCD27 binding (geo mean FITC) (R10A): 113% | % of WT hCD27 binding (geo mean FITC) (R37A [39]): 88% | % of WT hCD27 binding (geo mean FITC) (I46A [40]): 69.7% | % of WT hCD27 binding (geo mean FITC) (G16A [41]): 101% | % of WT hCD27 binding (geo mean FITC) (K31A [42]): 120% | % of WT hCD27 binding (geo mean FITC) (P44A [43]): 83.7% | % of WT hCD27 binding (geo mean FITC) (H36A [44]): 80% | % of WT hCD27 binding (geo mean FITC) (R87A [45]): 7.8% | % of WT hCD27 binding (geo mean FITC) (P8A [46]): 73.1% | % of WT hCD27 binding (geo mean FITC) (D43A [47]): 86.1% | % of WT hCD27 binding (geo mean FITC) (E9A [48]): 120%
Substance: 1F5 hIgG1 (antibody)
